Data reported in the DeepSol protein solubility set.

Assay: soluble on expression in E. coli; label from the status in PepcDB or PDB records

| Sequence | soluble on expression in E. coli |
| --- | --- |
| MKALLLLVLPWLSPANYIDNVGNLHFLYSELCKGASHYGLTKDRKRRSQDGCPDGCASLTATAPSPEVSAAATISLMTDEPGLDNPAYVSSAEDGQPAISPVDSGRSNRTRARPFERSTIRSRSFKKINRALSVLRRTKSGSAVANHADQGRENSENTTAPEVFPRLYHLIPDGEITSIKINRVDPSESLSIRLVGGSETPLVHIIIQHIYRDGVIARDGRLLPGDIILKVNGMDISNVPHNYAVRLLRQPCQVLWLTVMREQKFRSRNNGQAPDAYRPRDDSFHVILNKSSPEEQLGIKLVRKVDEPGVFIFNVLDGGVAYRHGQLEENDRVLAINGHDLRYGSPESAAHLIQASERRVHLVVSRQVRQRSPDIFQEAGWNSNGSWSPGPGERSNTPKPLHPTITCHEKVVNIQKDPGESLGMTVAGGASHREWDLPIYVISVEPGGVISRDGRIKTGDILLNVDGVELTEVSRSEAVALLKRTSSSIVLKALEVKEYEPQEDCSSPAALDSNHNMAPPSDWSPSWVMWLELPRCLYNCKDIVLRRNTAGSLGFCIVGGYEEYNGNKPFFIKSIVEGTPAYNDGRIRCGDILLAVNGRSTSGMIHACLARLLKELKGRITLTIVSWPGTFL | soluble |
| MKCKDDMSAVLTAEQALKLVGEMFVYHMPFNRALGMELERYEKEFAQLAFKNQPMMVGNWAQSILHGGVIASALDVAAGLVCVGSTLTRHETISEDELRQRLSRMGTIDLRVDYLRPGRGERFTATSSLLRAGNKVAVARVELHNEEQLYIASATATYMVGLEHHHHHH | soluble |
| MKDELIKKLSRPEWDFQYDSEKEVLRIEQKDSKKGINVSLPGVVAKWEVNKEKAIEEVAYYVQEALIAMHKEENSGAKILPVIRSTSFPKQAEEGNPFIMTDHTAETRIYYALDSNKTYRLIDERLLQKLELTEQQVREMALFNARSLGYEFKQDTVAGNTFYFLNTNDGYDATRILNESLLQSMREKISGDMVVAVPHQDVLIIADIVNEIGYDIIAQMTMKFFAEGHVPITSLSFVYEDGEFEPIFILAKNRKKTDGKEKG | not soluble |
| MKDFNQRFRDLHKLRQRARKENHEQVVEEDRRSKLPKNHEAKKERDQWQVKELQDRKAAEDKGLDYERVRSLEMSADVTEKLEQKRKRKKNPDQGFTSYEDMTLRQHTRLTAALDPDLDSYKKMRECVGGEQFYPTADTLIHGNHYPTTAAMDKLTKDVHGQVKRREQYHRRRLYDPDAPIDYINEKNKKFNKKLDKYYGKYTEDIKDDLERGTAI | not soluble |
| MKDVILVIYSLIKMTKLRSCPLDDCNSSETYFQLDKHLKNEHDGLVLLMVDPQSQWRCEQMKRHVEYVDLMSATEIPHIAEVVHHQLPYIDTLIIFRCLS | soluble |
| MKEESEESSMDHHSYTTEEVAKRLKVSKLTVYDLIKKGELPSYRVGRQMRIDAADLDQYIKQMKTGKVQVNPVKNDGSSILNTCIISGQELTLDMLAKRIENRLPSSNVLRAYQGSLTSLVKMYQGEGSIVSLHLFDGETGTYNIPYVKRILVGQPCLMINLLSRNVGFYVQKGNPKKIKTWADISGSTIKFVNREKGSGIRVLVDEQLRILKLNKADISGYEWEESNHLGVATQVANGKADVGVGSEKFSQIVNVDFIPIMKEQYDLVILKNKENEELIEVVKDILQSEEFHNELNAIGGYDITKTGQIVYEIK | not soluble |
| MKEFSIMIQGTISSWTEDTMSLLTVEKLGHTFGDRTLFKDVSMRLLAGEHVGLVGANGVGKSTFMNIITGQLIHDQGRVEWTPGTHYGYLDQHTVLTPGRTIRDVLADAFLPLFEKEKALNEVTEKMGTATPEELEELLEQMAEIQDALEAGGFYLLYMKIEEAARGLGIDAIGLDRDVSALSGGQRTKVLLAKLLLEQPEVLLLDEPTNYLDVEHIHWLTNYLKEYPHAFLLISHDTEFMNKCVDVIFHLEFTKMTRYTATYEKFLELAEINKNQHINAYEKQREFIKKQEDFIAKNKARYSTTGRAKSRQKQLDRMELIDRPETAIKPEFSFKESRASSRFVFEGENVEIGYTHPLLPKLSMTIERGEKIAIVGCNGVGKSTLLKTILGKIKPLSGKTSLGDFLEPAYFEQEVKADNITPIDDVWNTFPGLDQHQIRAMLAKCGLKNEHISRPLSQLSGGEQAKVRLCKLMGEESNWLLFDEPTNHLDVTAKAELKKAMKAYKGTILLVCHEPDFYEDWITKVWDVEEWSQNSK | not soluble |
| MKEIKVNELTDNLFETISKEWMLVTAGTKDKFNTMTANWGGAGFLWNRPVAFIFIRPERYTFDFIEQNDYLTLSFLGEEHKEIHKICGSKSGRDMDKVKATGLSPLFTENGSITFEQARLTFECKKLYADLIKPGNFIDKSITDRWYGESHGGFHKMYVVEIVNVLSR | soluble |
| MKEKEHQSIEWKESWQDEYLKWICGYANAYGGTIYIGTDDDGNVVGIDNARDLLERIPNKITDTMGIIVDVNLLYKGELEYLQIIVDKYPSLISFRGKYYYRSGSTMREITGKELERALLKTQGRTWDGVPLPKLTVADLKQDAIQLFKDKAVKRGRLTKEEVSVEDTILMDNLHLIDEDGYLIRAAMLAFYKDPEKWVTGSYIKIGYFGKSDSDLVYQDEVHGPLIEQVDKTVDLVYTKYMKALIDYEGVQRIEQFMFHKDAFREILLNAVVHKDYSSCNPIQISVYEDKIYIWNDGEMPPNLDSTDKLFMKHSSKPYNPKLANVFFKSGMIEAWGRGFEKIREACALYDGPLPEYEINEAGIMVLCKACDKYLGLLRNDGQHHGQCDQEGDHDEEQDIMRQIIAFCMEPKTASEIMQKFNLERSYFRRHYLNKMLKTGKLQRTEPDKPKSKNQKYYS | not soluble |
| MKEKIPFYNEKEFHDMMKKTKKGTFSGWYIIDKDNKSVEFSGNFNRQFKLNKPVIPVNTEYVTRKEFNEYKDSNDQRLTKIETTLAAQGEQIRIQGEQIKELQIEQKAQGETLKLILQTLQKMSDRLNKMDVRLDKLESKLEHHHHHH | not soluble |
| MKELNDLEKKYNAHIGVYALDTKSGKEVKFNSDKRFAYASTSHAINSAILLEQVPYNKLNKKVHINKDDIVAYSPILEKYVGKDITLKALIEASMTYSDNTANNKIIKEIGGIKKVKQRLKELGDKVTNPVRYEIELNYYSPKSKKDTSTPAAFGKTLNKLIANGKLSKENKKFLLDLMLNNKSGDTLIKDGVPKDYKVADKSGQAITYASRNDVAFVYPKGQSEPIVLVIFTNKDNKSDKPNDKLISETAKSVMKEF | soluble |
| MKENFQIHIWLGLLLCLLGMSCSDDTPAKGDDPGNGNTELEVNEWIESVMRSDYLWNNDIPAQNKLDFSADPQTFFRSMLSLKDGKTRNGKHLYYYSYMEKNKDYKARTSIDADDTYGMEFTLFNVVNDSNQPLGYYYARILYVLPNSPASSAGLERGDWIVGVKGRNNINSDNYGILLNGDRTQWLVKRGDTEVRTIDIEASRAVEDNPLFYHNVYTRGDKKIGYLVYNHFTSGPNGYSDRTYDEEMKKIFAGFQAQGVNEFVLDLRYNGGGYENSANMLAGLLIPEASRKKVFAVFSDNKGQSYSNDFCVETKGTAGYLKLNSNRIYILTSQSTASSSEVVINSLNPFMDVILIGELTEGKNVGMEMQKNDKYEWIYWPITLRVTNAVNDDYSAGFKPDIEWNEYDLTQNPTDALLPLGDPDEFMLGKAISLITGINRSARSMNTLGIFSKCL | not soluble |
| MKFCKKCVMPDTKPDLHFDEEGVCDACRSQEAKNQNINWQEREKEFFELIKKYKKHPVYDCVIGVSGGKDSTFQVVKMLELGLNPLCVCFEPSVPTKIGRKNLDNLNHLGVDLIHIKRDPKVYQKLAREAFIRTGDNEWQNHLGIFTSVPRIAVNFGVPLIIWGESPQIEYGGPASSKNKNILGREWLEEFGGLLGNRASDMLGVNGITEKDLFLYTYPSDEELQRVGVTGLFLGYYFKWDYKKILEISKKYGFLTLDHPVETTYENFENLDCYSNHVHDYLKYCKYGFGRATDNACLDIRLGYISREEGVRLAQKYDGKPPKKAIKKYLEFSGFSEEEFQKIVDSFTNKKIFKRDENGKFIRDYDGSLVRKDECVLK | not soluble |
| MKFDIVVIGGGLAGASLLAALKGSGLRLALIESRPPAPLPDDDSWDARVYAISPGSVEFLQSSGIWQRMNAARITPVHEMRVHGDDNAARIDFSAYESGVPELACIIENRQLQHAVWEELAGAENVQIFCPAQCDSLAWQDSHVELTLADGTVLQTALLIGADGINSRVREQAGIGVDRHSYYQTGVVANFETERVHHHIAYQWFRRDGILALLPLPGKRVSMVWSANTALADELLNLSAEALCDRVARAAEYELGSMRLVTAPLGFPLNFVHARSLIKPRLALIGDAAHGIHPLAGQGVNLGLRDVRELARLQRQFGGIGDCGEFSLLRCYERNRKEDILAMGWVTDGLQKLFGSEDAAIMRIRNVGLGITNRLPLLKNRLMRHALSLEHHHHHH | not soluble |
| MKFEYEYMETPEDLLMSLSAGFAMAMRNIATVYSYKGYLSYYTPAMSDGEELTMFVTLTKGELAPGLIDFDSENKRIEHVKKATNPEAYHFLVIRPQISTVLDKAIYDFEKSRNQP | not soluble |
| MKFFLLKKFSEFLNAQTHFSLKRLNASSFLLETFSKEKHAFVVDLSAPYIGLSKKPPESVLKNTLALDFCLNKFTRNAKILQANIIDNDRILEINGAKDLAYKSENFILRLEMIPKKANLMILDKEKCVIEAFRFNDRVAKNDILGALPPNIYEHQEEDLDFKGLLDILEKDFLFYQHKELEHKKNQIIKRLNAQKERLKEKLEKLEDPKNLQLEAKELQTQASLLLTYQHLIHKHESRVVLKDFEDKERAIEIDKSMPLNAFINKKFTLSKKKKQKSQFLYLEEENLKEKIAFKENQINYVKGAQEESVLEMFMPSKNSKIKRPMSGYEVLYYKDFKIGLGKNQKENIKLLQDARANDLWMHVRNIPGSHLIVFCQKNAPKDDVIMELAKMLIKMQKDAFNSYEIDYTQRKFVKIIKGANVIYSKYRTISLKDT | not soluble |
| MKFICPLFVVNNMEISRNFYEKVLNQKVQYDFGENVSFESGFAIHLKPHFSELTGINRNDIIQKSNNSELYFEEEDLDSFLKKLKEMNSIEYVHELKEQPWGQRVIRFYDPDMHIIEVGEPMESVVKRLLSEGLSVEETSKRTLMPEEFVRQFLLEHHHHHH | soluble |
